This note sets out measurements from patent US20250243261A1.

B1: mAb114 VH D42G-A68T-S79Y IgG (antibody, V domains shown)
VH: EVQLVESGGGLIQPGGSLRLSCAASGFALRMYDMHWVRQTIGKRLEWVSAVGPSGDTYYADSVKGRFTVSRENAKNSLYLQMNSLTAGDTAIYYCVRSDRGVAGLFDSWGQGILVTVSS
VL: DIQMTQSPSSLSASVGDRITITCRASQAFDNYVAWYQQRPGKVPKLLISAASALHAGVPSRFSGSGSGTHFTLTISSLQPEDVATYYCQNYNSAPLTFGGGTKVEIK
B2: mAb114 VH I41P-D42G-A68T-S79Y-I113T IgG (antibody, V domains shown)
VH: EVQLVESGGGLIQPGGSLRLSCAASGFALRMYDMHWVRQTPGKRLEWVSAVGPSGDTYYADSVKGRFTVSRENAKNSLYLQMNSLTAGDTAIYYCVRSDRGVAGLFDSWGQGTLVTVSS
VL: DIQMTQSPSSLSASVGDRITITCRASQAFDNYVAWYQQRPGKVPKLLISAASALHAGVPSRFSGSGSGTHFTLTISSLQPEDVATYYCQNYNSAPLTFGGGTKVEIK
B3: mAb114 VH A68T-I113T / VL V43A IgG (antibody, V domains shown)
VH: EVQLVESGGGLIQPGGSLRLSCAASGFALRMYDMHWVRQTIDKRLEWVSAVGPSGDTYYADSVKGRFTVSRENAKNSLSLQMNSLTAGDTAIYYCVRSDRGVAGLFDSWGQGTLVTVSS
VL: DIQMTQSPSSLSASVGDRITITCRASQAFDNYVAWYQQRPGKAPKLLISAASALHAGVPSRFSGSGSGTHFTLTISSLQPEDVATYYCQNYNSAPLTFGGGTKVEIK
B4: mAb114 VH A68T-E72D-S79Y-I113T / VL V43A IgG (antibody, V domains shown)
VH: EVQLVESGGGLIQPGGSLRLSCAASGFALRMYDMHWVRQTIDKRLEWVSAVGPSGDTYYADSVKGRFTVSRDNAKNSLYLQMNSLTAGDTAIYYCVRSDRGVAGLFDSWGQGTLVTVSS
VL: DIQMTQSPSSLSASVGDRITITCRASQAFDNYVAWYQQRPGKAPKLLISAASALHAGVPSRFSGSGSGTHFTLTISSLQPEDVATYYCQNYNSAPLTFGGGTKVEIK
B5: mAb114 VH I41P-D42G-A68T-S79Y-I113T / VL V43A IgG (antibody, V domains shown)
VH: EVQLVESGGGLIQPGGSLRLSCAASGFALRMYDMHWVRQTPGKRLEWVSAVGPSGDTYYADSVKGRFTVSRENAKNSLYLQMNSLTAGDTAIYYCVRSDRGVAGLFDSWGQGTLVTVSS
VL: DIQMTQSPSSLSASVGDRITITCRASQAFDNYVAWYQQRPGKAPKLLISAASALHAGVPSRFSGSGSGTHFTLTISSLQPEDVATYYCQNYNSAPLTFGGGTKVEIK
B6: MEDI8852 UCA VH V65P/VL G95P IgG (antibody, V domains shown)
VH: QVQLQQSGPGLVKPSQTLSLTCAISGDSVSSNSAAWNWIRQSPSRGLEWLGRTYYRSKWYNDYAPSVKSRITINPDTSKNQFSLQLNSVTPEDTAVYYCARGGHITIFGVNIDAFDIWGQGTMVTVSS
VL: DIQMTQSPSSLSASVGDRVTITCRASQSISSYLNWYQQKPGKAPKLLIYAASSLQSGVPSRFSGSGSGTDFTLTISSLQPEDFATYYCQQSRTFPQGTKVEIK

For the first experiment, the target named is full-length Ebola GP on pseudotyped lentivirus (Zaire ebolavirus) (UniProt Q05320). In words: cell-based or functional assay.
Turning to B1, the Ebola GP pseudotyped lentivirus IC50 worked out at 1.2 nM.
The molecule B2 displayed an Ebola GP pseudotyped lentivirus IC50 of 1.2 nM.
The same measure, in the same setting: to B3 belongs 1.1 nM.
Same read-out and setting: under B4 stands 1.2 nM; under B5, 1 nM.

A further experiment has as its target HA H4 Hubei, A/swine/Hubei/06/2009(H4N1) (Influenza A virus).
Experiment: not given
Regarding B6, the Kd is 100 nM.
